Publication PMC7192595

Question: What does the source list for “MBP-Leish4E-IP2_(1-134) (domain or fragment)”?
Answer: reduction of the binding of SBP-LeishIF4E-1 (cell lysate) to m7GTP-agarose by 0, 5, 10, 20 ug MBP-Leish4E-IP2 (1-134) per 300 ul, densitometry of anti-SBP blots; 13% at 5 ug; MBP alone had no effect (LeishIF4E-1-SBP): 42%; reduction of the binding of SBP-LeishIF4E-3 (cell lysate) to m7GTP-agarose by 0, 5, 10, 20 ug MBP-Leish4E-IP2 (1-134) per 300 ul, densitometry of anti-SBP blots; 60% at 5 ug (LeishIF4E-3-SBP): 96%
